Test results taken from patent publication US20230051715A1 (MABWELL THERAPEUTICS, published 2023).

Tests used:
[1] = target: T1, human C1s mutant M19 (Q303K) (human, UniProt P09871 16-688); assay: ELISA, plate coated with human C1s mutant M19: Q303K, OD450nm
T1 construct: The entry is the mutant itself
T1 sequence: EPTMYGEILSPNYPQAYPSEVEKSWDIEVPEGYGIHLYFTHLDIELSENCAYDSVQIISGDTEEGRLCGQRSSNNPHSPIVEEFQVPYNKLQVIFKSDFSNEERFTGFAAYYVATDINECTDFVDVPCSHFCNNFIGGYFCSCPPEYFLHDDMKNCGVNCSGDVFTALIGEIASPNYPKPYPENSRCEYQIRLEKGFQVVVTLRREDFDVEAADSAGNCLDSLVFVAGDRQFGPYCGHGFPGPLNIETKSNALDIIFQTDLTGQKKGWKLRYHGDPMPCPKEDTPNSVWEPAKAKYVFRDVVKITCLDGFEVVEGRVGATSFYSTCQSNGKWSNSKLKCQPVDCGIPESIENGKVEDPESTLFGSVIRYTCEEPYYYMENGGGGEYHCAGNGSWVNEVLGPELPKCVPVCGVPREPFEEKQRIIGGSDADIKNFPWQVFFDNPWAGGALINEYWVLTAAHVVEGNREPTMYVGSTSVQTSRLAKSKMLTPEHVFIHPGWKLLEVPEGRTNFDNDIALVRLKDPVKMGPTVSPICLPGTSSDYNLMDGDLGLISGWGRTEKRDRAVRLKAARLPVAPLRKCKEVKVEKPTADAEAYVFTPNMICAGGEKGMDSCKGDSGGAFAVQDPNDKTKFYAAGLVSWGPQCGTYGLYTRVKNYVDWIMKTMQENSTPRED
Experimental: (§1) ELISA was carried out by first coating 96-well plates with 200 ng/well of full-length or truncated C1s proteins overnight. The next morning, plates were blocked with SuperBlock T20 blocking buffer (Thermo Scientific 37536) for 1 h with gentle shaking. Then, various concentrations of anti-C1s antibodies diluted in SuperBlock T20 blocking buffer were added to the plates and incubated for 1 h with gentle shaking. Mouse IgG (Sigma-Aldrich 15381) and human IgG1 (BioXCell BP0297) were used as negative controls. The plates were washed before incubating with HRP conjugated secondary antibodies diluted in SuperBlock T20 blocking buffer (goat anti-mouse IgG (H+L) cross-adsorbed secondary antibody HRP (Invitrogen G-21040) or goat anti-human IgG antibody, HRP conjugate (Millipore AP309P)) for 1 h with gentle shaking. At last, the plates were washed and color developed with ELISA liquid HRP substrate (Sigma-Aldrich), followed by stopping the reaction with addition of 1M H₂SO₄ in the same volume as the ELISA liquid substrate. Bound antibody was measured by absorbance at OD₄₅₀ₙₘ.
(§2) Binding of anti-C1s antibodies to mutants M1-M20 of human C1s was measured by ELISA as described in Example 4, and results are shown in FIGS. 6B-6U. All anti-C1s humanized variants including hz2-7(H1L2), hz2-8(H1L2 G80A) and hz2-8(H1L2 G80A/T82A) maintained strong binding properties to the majority (16 out of 20) of C1s mutants including M1 (FIG. 6B), M2 (FIG. 6C), M3 (FIG. 6D). M4 (FIG. 6E), M7 (FIG. 6H), M8 (FIG. 6I), M10 (FIG. 6K), M11 (FIG. 6L), M12 (FIG. 6M), M13 (FIG. 6N), M15 (FIG. 6P), M16 (FIG. 6Q), M17 (FIG. 6R), M18 (FIG. 6S), M19 (FIG. 6T) and M20 (FIG. 6U).

[2] = target: T2, human C1s mutant M3 (M277I, P278S & N329D) (human, UniProt P09871 16-688); assay: ELISA, plate coated with human C1s mutant M3: M277I, P278S, N329D, OD450nm
T2 construct: The entry is the mutant itself
T2 sequence: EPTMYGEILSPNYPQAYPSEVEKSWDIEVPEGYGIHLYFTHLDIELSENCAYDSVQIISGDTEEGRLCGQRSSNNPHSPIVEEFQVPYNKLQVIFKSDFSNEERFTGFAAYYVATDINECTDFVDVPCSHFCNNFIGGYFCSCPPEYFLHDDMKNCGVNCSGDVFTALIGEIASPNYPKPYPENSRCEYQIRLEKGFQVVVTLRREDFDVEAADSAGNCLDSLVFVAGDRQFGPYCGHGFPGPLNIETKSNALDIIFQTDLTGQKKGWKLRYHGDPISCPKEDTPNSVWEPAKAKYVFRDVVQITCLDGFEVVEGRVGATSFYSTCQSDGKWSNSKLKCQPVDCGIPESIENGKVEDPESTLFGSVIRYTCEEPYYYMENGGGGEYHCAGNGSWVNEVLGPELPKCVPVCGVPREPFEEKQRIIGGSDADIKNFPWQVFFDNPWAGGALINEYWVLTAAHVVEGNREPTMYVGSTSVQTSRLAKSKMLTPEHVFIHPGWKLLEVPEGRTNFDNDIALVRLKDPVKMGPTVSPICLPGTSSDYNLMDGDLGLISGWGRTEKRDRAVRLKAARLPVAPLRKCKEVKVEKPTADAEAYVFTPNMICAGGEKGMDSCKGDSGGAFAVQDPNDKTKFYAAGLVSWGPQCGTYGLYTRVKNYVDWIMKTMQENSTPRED
Experimental: as §1, §2

| Binder | EC50 [1] | EC50 [2] |
| --- | --- | --- |
| Anti-C1s antibody hz2-7(H1L2) (antibody, V domains shown, Humanized, human IgG1 / kappa; also called hz2-7(1L2)) VH: EVQLLESGGGLVQPGGSLRLSCAASGFTFSNYFMNWVRQAPGKGLEWVSEIRLKFTNYATHYADSVKGRFTISRDDSKSTLYLQMNSLRAEDTAVYYCTRDYGSRNGYFDYWGQGTLVTVSS VL: DIVMTQTPLSLPVTPGEPASISCRSSKSLLHSNGNTFLYWFLQKPGQSPQLLIYRMSNLASGVPDRFSGSGSGTDFTLKISRVEAEDVGVYYCMQHLEYPYTFGGGTKLEIKR | 2 ng/mL | 8 ng/mL |
| Anti-C1s antibody hz2-8 (H1L2 G80A) (antibody, V domains shown, Humanized variant with G80A in HC CDR2 (already in the entry), human IgG1 / kappa) VH: QVQLVQSGAEVKKPGASVKVSCKASGFNIKEYYMHWVRQAPEQGLEWMGWIDPENADTIYAQKFQGRVTITADTSTNTAYMELSSLRSEDTAVYYCARSRLFFAYWGQGTLVTVSS VL: DIQMTQSPKSLSASVGDRVTITCRASQDVRTALDWYQQKPGQSPKLLIYSASYRYSGVPSRFSGSGSGTDFTLTISSLQPEDFATYYCQQQYTTPYTFGQGTKLEIKR | 1 ng/mL | 6 ng/mL |
| Anti-C1s antibody hz2-8 (H1L2 G80A/T82A) (antibody, V domains shown, Humanized variant with G80A and T82A in HC CDR2 (already in the entry), human IgG1 / kappa) VH: QVQLVQSGAEVKKPGASVKVSCKASGFNIKEYYMHWVRQAPEQGLEWMGWIDPENADAIYAQKFQGRVTITADTSTNTAYMELSSLRSEDTAVYYCARSRLFFAYWGQGTLVTVSS VL: DIQMTQSPKSLSASVGDRVTITCRASQDVRTALDWYQQKPGQSPKLLIYSASYRYSGVPSRFSGSGSGTDFTLTISSLQPEDFATYYCQQQYTTPYTFGQGTKLEIKR | 1 ng/mL | 4 ng/mL |
